# Laboratory results taken from patent publication US20200376136A1.
# B1: BSSTEAP2/CD3-004 (bispecific antibody, IgG4, V domains shown)
# VH 1: QVQLVESGGGVVQPGRSLRLSCVASGFTISSYGMNWVRQAPGKGLEWVAVISYDGGNKYSVDSVKGRFTISRDNSKNTLYLQMNSLRAEDSAVYYCARGRYFDLWGRGTLVTVSS
# VH 2: EVQLVESGGGLVQPGRSLRLSCAASGFTFADYTMHWVRQGPGTGLEWVSDIGWSGGSLGYADSVKGRFTISRDNAKNSLYLEMNNLRPEDTALYYCVKDKSGYGKFQYGLDVWGQGTTVTVSS
# VL: DIQMTQSPSTLSASVGDRVTITCRASQSISSWLAWYQQKPGRAPNLLISKASSLKSGVPSRFSGSGSGTEFTLTVSSLQPDDFATYYCQQYYSYSYTFGQGTKLEIK
# B2: BSSTEAP2/CD3-001 (bispecific antibody, IgG4, V domains shown)
# VH 1: QVQLQQSGPGLVKPSQTLSLTCAISGDSVSSNRAAWNWIRQSPSRGLQWLGRTYYRSKWYNDYAVSLRSRITINPVTSKNQVALHMNSVTPEDTAVYYCARAGIVVVPGPETFYYYDHGLDVWGQGTTVTVSS
# VH 2: EVQLVESGGGLVQPGRSLRLSCAASGFTFDDYSMHWVRQAPGKGLEWVSGISWNSGSKGYADSVKGRFTISRDNAKNSLYLQMNSLRAEDTALYYCAKYGSGYGKFYHYGLDVWGQGTTVTVSS
# VL: DIQMTQSPSSLSASVGDRVTITCRASQSIRSYLNWYQQKPGKAPELLIHAASSLQSGVPSRFSGSGSGTDFTLTISSLQPEDFASYYCQQSYSAPPITFGQGTRLEIK
# B3: CD3-VH-P (antibody, V domains shown)
# VH: EVQLVESGGGLVQPGRSLRLSCVASGFTFDDYSMHWVRQAPGKGLEWVSGISWNSGSKDYADSVKGRFTISRDNAKNSLYLQMNSLRAEDTALYYCAKYGSGYGKFYHYGLDVWGQGTTVTVSS
# VL: DIQMTQSPSSLSASVGDSVTITCRASQSINNYLNWYQQKPGKAPKLLIYTASSLLSGVPSRFSGSGSGTDFTLTISGLHPEDFATYFCQQSFSTPPITFGQGTRLDIK
# B4: BSSTEAP2/CD3-006 (bispecific antibody, V domains shown)
# VH 1: QVQLQQSGPGLVKPSQTLSLTCAISGDSVSSNRAAWNWIRQSPSRGLQWLGRTYYRSKWYNDYAVSLRSRITINPVTSKNQVALHMNSVTPEDTAVYYCARAGIVVVPGPETFYYYDHGLDVWGQGTTVTVSS
# VH 2: EVQLVESGGGLVQPGRSLRLSCVASGFTFDDYSMHWVRQAPGKGLEWVSGISWNSGSKDYADSVKGRFTISRDNAKNSLYLQMNSLRAEDTALYYCAKYGSGYGKFYHYGLDVWGQGTTVTVSS
# VL: DIQMTQSPSSLSASVGDRVTITCRASQSIRSYLNWYQQKPGKAPELLIHAASSLQSGVPSRFSGSGSGTDFTLTISSLQPEDFASYYCQQSYSAPPITFGQGTRLEIK
# B5: BSSTEAP2/CD3-007 (bispecific antibody, V domains shown)
# VH 1: QVQLQQSGPGLVKPSQTLSLTCAISGDSVSSNRAAWNWIRQSPSRGLQWLGRTYYRSKWYNDYAVSLRSRITINPVTSKNQVALHMNSVTPEDTAVYYCARAGIVVVPGPETFYYYDHGLDVWGQGTTVTVSS
# VH 2: EVQLVESGGGLVQPGRSLRLSCAASGFTFADYTMHWVRQAPGKGLEWVSDISWNSGSIAYADSVKGRFTISRDNAKNSLYLQMNSLRTEDTAFYYCAKDSRGYGHYKYLGLDVWGQGTTVTVSS
# VL: DIQMTQSPSSLSASVGDRVTITCRASQSIRSYLNWYQQKPGKAPELLIHAASSLQSGVPSRFSGSGSGTDFTLTISSLQPEDFASYYCQQSYSAPPITFGQGTRLEIK
# Experiments:
# [1] = target: cynomolgus CD3 (cynomolgus monkey) (UniProt Q95LI5); experiment: FACS titration on purified cynomolgus T cells
# [2] = target: cynomolgus CD3 (cynomolgus monkey) (UniProt Q95LI5); experiment: cell-based or functional assay
# [3] = target: cynomolgus CD3 (cynomolgus monkey) (UniProt Q95LI5); experiment: FACS titration of cynomolgus T cells
Binder,EC50 [1] [nM],Cyno PBMC Proliferation [M] (donor) [2],EC50 [3] [nM]
B1,1.99,,
B2,7.27,4.59e-12,
B3,,,1 to 40
B4,7.99,1.53e-11,
B5,17.3,,
